Target: PDGF-BB (platelet-derived growth factor BB) (Homo sapiens) (UniProt P01127)
Assay: filter
[1] = all P are NapdU, rest DNA, SB18T, 37 C
[2] = all Z are BndU, rest DNA, SB18T, 37 C

Sequence of PDGF-BB (platelet-derived growth factor BB) (Homo sapiens) (P01127 82-190): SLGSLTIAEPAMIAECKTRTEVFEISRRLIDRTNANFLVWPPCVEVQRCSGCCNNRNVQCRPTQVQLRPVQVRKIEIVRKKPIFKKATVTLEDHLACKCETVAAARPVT

## TTACGACTACGTTACACGCGTTATAGCG [4149-8_86]
Bn-dU, C3 at 23
  Kd: > 10 nM

## CGACAGCATGTATGCACATCTAGAG [5169-4_22]
NapdU at P
  Kd: 0.015 nM

## ACAGCATGTATGCACATCTAGAGGCTACCCAGTGAA [5169-4_14]
[1]
  Kd: 0.17 nM

## TTACGACTACGTTACACGCGTTTATAGCGT [4149-8_37]
[2]
  Kd: 0.04 nM

## CGACAGCATGTATGCACATCT [5169-4_154]
As 5169-4_146 plus PS 3' of P9, 3'-idT, 1.8-fold weaker than parent
  Kd: 0.026 nM

## CGACAGCATGTATGCACATCT [5169-4_83]
NapdU at P, 2'-OMe 1,6,7,14,15,16,18,20,21
  Kd: 0.0021 nM

## TTACGTTACCGCGTTTATAGCG [4149-8_453]
BndU, NapdU 16, 2'-OMe 3,7,12,13,18,19,21,24, PS 9,15,16,17, Heg 5, C3 11
  Kd: 0.002 nM

## TTACGACTACGTTACACGCGTTTATAGCG [4149-8_108]
Bn-dU, 2'-OMe U21
  Kd: > 10 nM

## TTCGACTACGTTACACGCGTTTATAGCG [4149-8_66]
Bn-dU, C3 at 3
  Kd: > 10 nM

## CGACAGCATGTATGCACATCTAGA [5169-4_23]
NapdU at P
  Kd: 0.02 nM

## CGACAGATGTATGCACATCT [5169-4_65]
NapdU at P, C3 spacer at 7
  Kd: 0.074 nM

## CGACAGCATGTATGCACATCT [5169-4_179]
As 5169-4_146, PS 14, 3' inverted dT
  Kd: 0.0077 nM

## TTACGACTACGTTACACGCGTTTATAGCG [4149-8_109]
Bn-dU, 2'-OMe U22
  Kd: > 10 nM

## CGACAGCATGTATGCACATCT [5169-4_39]
NapdU at P, 2'-OMe 2
  Kd: 0.058 nM

## TTACGACTACGTTACACGCGTTATAGCG [4149-8_85]
Bn-dU, C3 at 22
  Kd: > 10 nM

## CGACAGCATGTATGCACATCT [5169-4_49]
NapdU at P, 2'-OMe 9
  Kd: 0.53 nM

## CGACAGCATGTATGCACATCTAGAGG [5169-4_21]
NapdU at P
  Kd: 0.021 nM

## CGACAGCATGTATGCACATCT [5169-4_82]
NapdU at 9,11,13,19, 2'-OMe at G6,C7,G14,A16,A18,C20 and 2'-OMe-NapU21, SB18T, 37 C
  Kd: 0.0016 nM

## CGACAGCATGTATGCACATCT [5169-4_57]
NapdU at 9,11,13,21, dT at 19, dT substitution
  Kd: 120 nM

## CGACAGCATGTATGCACATCT [5169-4_156]
As 5169-4_146, PS 11, 3' inverted dT
  Kd: 0.0078 nM

## TTACGTTACACGCGTTTATAGCGNT [4149-8_341]
4149-8_260 3'-3' dimer, 2 Heg, doubler
  Kd: 0.0272 nM

## CGACAGCATGTATGCACATCT [5169-4_109]
NapdU at P, 2'-OMe 1,6,16
  Kd: 0.011 nM

## TTACGACTACGTTACACGCGTTTATAG [4149-8_40]
BndU at 1,2,8,12,13,21,22,23,25, rest DNA, SB18T, 37 C
  Kd: 1.5 nM

## CTGCCTCGACAGCATGTATGCACATCTAGAGGCTACCCAGT [5169-4_9]
[1]
  Kd: 0.72 nM

## CGACAGCATGTATGCACATCT [5169-4_92]
NapdU at P, 2'-OMe 1,7,15,16,18,20,21
  Kd: 0.0052 nM

## CGACAGCATGTATGCACATCT [5169-4_106]
NapdU at P, 2'-OMe 1,18,20
  Kd: 0.016 nM

## CGACAGCATGTATGCACATCT [5169-4_180]
As 5169-4_146, PS 16, 3' inverted dT
  Kd: 0.02 nM

## TTACGACTACGTTACACGGTTTATAGCG [4149-8_82]
Bn-dU, C3 at 19
  Kd: > 10 nM

## CGACAGCATGTATGCACTCT [5169-4_76]
C3 spacer at 18, NapdU at 9,11,13,19,21, C3 spacer walk
  Kd: 1.3 nM

## ATCTCTTACGACTACGTTACACGCGTTTATAGCGTC [4149-8_10]
[2]
  Kd: 0.05 nM

## CGACAGCATGTATGCACATCT [5169-4_36]
NapdU at P, 2'-OMe 15
  Kd: 0.028 nM

## CGACAGCATGTATGACATCT [5169-4_73]
C3 spacer at 15, NapdU at 9,11,13,19,21, C3 spacer walk
  Kd: 0.015 nM

## TTACGTTACACGCGTTTATAGCG [4149-8_196]
Bn-dU, 2NE-dU17, Heg5, 2'-OMe A3, A11, A21, G24
  Kd: > 10 nM

## TTACGTTACCGCGTTTATAGCG [4149-8_424]
As 4149-8_379, 2'-OMe 13,14
  Kd: 6.6 nM

## TTACGTTACCGCGTTTATAGCG [4149-8_425]
As 4149-8_379, 2'-OMe 9
  Kd: 0.91 nM

## TTACGTTACACGCGTTTATAGCGNT [4149-8_340]
4149-8_260 3'-3' dimer, Heg, doubler
  Kd: 0.0189 nM

## TTACGTTACCGCGTTTATAGCG [4149-8_454]
BndU at 1,2,8,17,20, NapdU at 16, Heg 5, C3 11, 2'-OMe at 3,7,12,18,19,21,24, PS 3' of 9,15,16,17, 3'-idT
  Kd: 0.0013 nM

## CGACAGCATGTATGCACATCT [5169-4_127]
NapdU at P, 2'-OMe 16,17,18
  Kd: 0.01 nM

## TTACGACTACGTTACACGCGTTTAT [4149-8_42]
Bn-dU
  Kd: > 10 nM

## CTCTTACGACTACGTTACACGCGTTTATAGCGTC [4149-8_27]
[2]
  Kd: 0.09 nM

## CGACAGCATGTATCACATCT [5169-4_72]
C3 spacer at 14, NapdU at 9,11,13,19,21, C3 spacer walk
  Kd: 230 nM

## TTACGTTACACGCGTTTATAGCG [4149-8_253]
Trp, Ib, NE, Th, Pe, MBn dU, Heg, 2'-OMe
  Kd: > 10 nM

## CGACAGCATGTATGCACATCT [5169-4_117]
NapdU at P, 2'-OMe 4,12,17
  Kd: 0.71 nM

Source: patent publication US20160177307
